These results are taken from article PMC6588349, “Conformational dynamics between transmembrane domains and allosteric modulation of a metabotropic glutamate receptor” (eLife, 2019).

The assay has as its target SNAP-mGluR3 (rat), P31422. Briefly: single-molecule pulldown (SiMPull) with subunit counting by photobleaching steps; surface receptors labelled with BG-LD555 on HEK 293T cells, lysed in 1.2% IGEPAL, diluted in 0.1% IGEPAL, immobilised by biotinylated anti-HA antibody on a PEG-passivated coverslip, TIRF imaging; SNAP labelling efficiency ~80%; background two-step bleaching ~5-10%. The settings on record: remark: other sources report otherwise.

B1: SNAP-mGluR3, P31422 23-879 (receptor)
chain: LGDHNFMRREIKIEGDLVLGGLFPINEKGTGTEECGRINEDRGIQRLEAMLFAIDEINKDNYLLPGVKLGVHILDTCSRDTYALEQSLEFVRASLTKVDEAEYMCPDGSYAIQENIPLLIAGVIGGSYSSVSIQVANLLRLFQIPQISYASTSAKLSDKSRYDYFARTVPPDFYQAKAMAEILRFFNWTYVSTVASEGDYGETGIEAFEQEARLRNICIATAEKVGRSNIRKSYDSVIRELLQKPNARVVVLFMRSDDSRELIAAANRVNASFTWVASDGWGAQESIVKGSEHVAYGAITLELASHPVRQFDRYFQSLNPYNNHRNPWFRDFWEQKFQCSLQNKRNHRQVCDKHLAIDSSNYEQESKIMFVVNAVYAMAHALHKMQRTLCPNTTKLCDAMKILDGKKLYKEYLLKINFTAPFNPNKGADSIVKFDTFGDGMGRYNVFNLQQTGGKYSYLKVGHWAETLSLDVDSIHWSRNSVPTSQCSDPCAPNEMKNMQPGDVCCWICIPCEPYEYLVDEFTCMDCGPGQWPTADLSGCYNLPEDYIKWEDAWAIGPVTIACLGFLCTCIVITVFIKHNNTPLVKASGRELCYILLFGVSLSYCMTFFFIAKPSPVICALRRLGLGTSFAICYSALLTKTNCIARIFDGVKNGAQRPKFISPSSQVFICLGLILVQIVMVSVWLILETPGTRRYTLPEKRETVILKCNVKDSSMLISLTYDVVLVILCTVYAFKTRKCPENFNEAKFIGFTMYTTCIIWLAFLPIFYVTSSDYRVQTTTMCISVSLSGFVVLGCLFAPKVHIVLFQPQKNVVTHRLHLNRFSVSGTATTYSQSSASTYVPTVCNGREVLDSTTSSL
modifications: here or on the partner: SNAP tag labelled with BG-LD555; SNAP tag labelled with BG-LD555
Take B1: the percent of spots bleaching in two steps amounted to 48.9% and the stoichiometry N (as a rule, the number of molecules, sites or subunits per partner or assembly) is 2.
